The values that follow come from the Immune Epitope Database (IEDB).

Broadly, the Kd is the equilibrium constant for the complex coming apart. A word on the IC50: it is the concentration at which inhibition is half-maximal.

Experiment [1] deals with HLA-A*26:01. Put plainly: IEDB peptide-MHC binding, purified MHC/competitive/fluorescence; filed as Kd, often an IC50 or EC50 that approximates it; ≥ and ≤ were set here for values at or beyond the usual limits of such assays. As to conditions: source organism: Homo sapiens.
The target in experiment [2] is HLA-B*57:01. Described as above. As to conditions: source organism: Homo sapiens.
For experiment [3], the target named is HLA-B*51:01. The description is as above. As to conditions: source organism: Homo sapiens.
Experiment [4] concerns the target HLA-A*69:01. The experiment is described as above. As to conditions: source organism: Homo sapiens.
Experiment [5] addresses HLA-B*15:01. The experiment is described as above. As to conditions: source organism: Homo sapiens.
Experiment [6] concerns the target HLA-B*46:01. The description is as above. As to conditions: source organism: Homo sapiens.
The target in experiment [7] is HLA-B*27:03. Described as above. The note with it: source organism: Homo sapiens.
The target of experiment [8] is HLA-A*11:01. Kind of experiment: IEDB peptide-MHC binding, purified MHC/competitive/fluorescence; ≥ and ≤ were set here for values at or beyond the usual limits of such assays.
For experiment [9], the target named is HLA-A*23:01. Put plainly: IEDB peptide-MHC binding, purified MHC/competitive/radioactivity; filed as Kd, often an IC50 or EC50 that approximates it; ≥ and ≤ were set here for values at or beyond the usual limits of such assays. The note with it: source organism: Dengue virus 1 Brazil/97-11/1997.
In experiment [10] the target is HLA-B*15:01. The experiment is described as above.
The target in experiment [11] is HLA-A*24:02. The description is as above.
Experiment [12] addresses HLA-B*53:01. The experiment is described as above.
The target in experiment [13] is HLA-B*39:01. Kind of experiment: IEDB peptide-MHC binding, purified MHC/direct/fluorescence; filed as Kd, often an IC50 or EC50 that approximates it; ≥ and ≤ were set here for values at or beyond the usual limits of such assays.
For experiment [14], the target named is HLA-B*57:01. The experiment is described as above.
Experiment [15] concerns the target HLA-B*15:17. The description is as above.
For experiment [16], the target named is HLA-B*58:01. The description is as above.
The target in experiment [17] is HLA-B*07:02. Kind of experiment: IEDB peptide-MHC binding, purified MHC/competitive/radioactivity; filed as Kd, often an IC50 or EC50 that approximates it; ≥ and ≤ were set here for values at or beyond the usual limits of such assays. As to conditions: source organism: Dengue virus 2 Jamaica/1409/1983.
The target of experiment [18] is HLA-A*30:02. Described as above. The note with it: source organism: Dengue virus 3 Martinique/1243/1999.
The target in experiment [19] is HLA-A*01:01. The experiment is described as above. As to conditions: source organism: Dengue virus 3 Martinique/1243/1999.
For experiment [20], the target named is HLA-B*57:01. Described as above. The note with it: source organism: Dengue virus 2 Jamaica/1409/1983.
Experiment [21] has as its target HLA-A*02:01. Kind of experiment: IEDB peptide-MHC binding, purified MHC/direct/fluorescence; filed as Kd, often an IC50 or EC50 that approximates it; ≥ and ≤ were set here for values at or beyond the usual limits of such assays.
Experiment [22] deals with HLA-B*18:01. Put plainly: IEDB peptide-MHC binding, purified MHC/competitive/fluorescence; filed as Kd, often an IC50 or EC50 that approximates it; ≥ and ≤ were set here for values at or beyond the usual limits of such assays. The note with it: source organism: Homo sapiens.
Experiment [23] concerns the target HLA-B*39:01. The experiment is described as above. The note with it: source organism: Homo sapiens.
Experiment [24] has as its target HLA-B*15:17. Described as above. As to conditions: source organism: Homo sapiens.
The target of experiment [25] is HLA-A*02:11. Put plainly: IEDB peptide-MHC binding, purified MHC/direct/fluorescence; filed as Kd, often an IC50 or EC50 that approximates it; ≥ and ≤ were set here for values at or beyond the usual limits of such assays. The note with it: source organism: Orthohantavirus sangassouense.
Experiment [26] addresses HLA-A*69:01. Described as above.
In experiment [27] the target is HLA-A*02:19. The description is as above. The note with it: source organism: Orthohantavirus sangassouense.
Experiment [28] has as its target HLA-A*02:12. The description is as above. The note with it: source organism: Orthohantavirus sangassouense.
Experiment [29] addresses HLA-B*40:01. Described as above. As to conditions: source organism: Escherichia coli O157:H7.
The target of experiment [30] is HLA-B*08:01. The description is as above. The note with it: source organism: Escherichia coli O157:H7.
For experiment [31], the target named is HLA-A*26:01. The description is as above. The note with it: source organism: Escherichia coli O157:H7.
Experiment [32] deals with HLA-B*07:02. The description is as above. The note with it: source organism: Escherichia coli O157:H7.
Experiment [33] has as its target HLA-B*27:05. Described as above. As to conditions: source organism: Escherichia coli O157:H7.
Experiment [34] has as its target HLA-A*01:01. Described as above. The note with it: source organism: Escherichia coli O157:H7.
The target of experiment [35] is HLA-A*11:01. The description is as above. As to conditions: source organism: Escherichia coli O157:H7.
The target in experiment [36] is HLA-B*15:01. Described as above. As to conditions: source organism: Escherichia coli O157:H7.
Experiment [37] has as its target HLA-A*03:01. The experiment is described as above. The note with it: source organism: Escherichia coli O157:H7.
Experiment [38] deals with HLA-A*31:01. The experiment is described as above. As to conditions: source organism: Escherichia coli O157:H7.
Experiment [39] addresses HLA-B*44:02. The experiment is described as above. The note with it: source organism: Escherichia coli O157:H7.
Experiment [40] addresses HLA-A*02:01. Put plainly: IEDB peptide-MHC binding, purified MHC/competitive/fluorescence; ≥ and ≤ were set here for values at or beyond the usual limits of such assays. The note with it: source organism: Zaire ebolavirus.
Setting [41] is: source organism: Zaire ebolavirus.
[42] abbreviates: source organism: Dengue virus 1 Brazil/97-11/1997.
The mark [43] stands for this setting: source organism: Burkholderia mallei.
Setting [44] is: source organism: Dengue virus 2 Jamaica/1409/1983.
Where [45] appears, read: source organism: Marburg virus - Musoke, Kenya, 1980.
Where [46] appears, read: source organism: Entamoeba histolytica HM-1:IMSS.
The mark [47] stands for this setting: source organism: Escherichia coli O157:H7.
The mark [48] stands for this setting: source organism: Vibrio parahaemolyticus.

Bounds are passed on as bounds.

As to WMFRIRIIL, the Kd in experiment [1], in experiment [2], in [3], in experiment [4], in [5] and in experiment [6] was not below 20000 nM throughout. This sequence registered a dissociation constant Kd in experiment [7] not below 20000 nM.

In [8] (setting [41]), GTNTTTEDH registered an IC50 not below 76900 nM.

Regarding LMLLPTALAF, the Kd in experiment [9] is 72.9 nM; in experiment [10] (setting [42]), 0.82 nM; in experiment [11] (setting [42]), 4450 nM; in experiment [12] (setting [42]), 15600 nM.

On to FRAICTNGL, for which the Kd in experiment [13] (source organism: Escherichia coli O157:H7 str. EC869) worked out at 10 nM.

Take RAMDTYHRW: the values for the Kd in experiment [14] (setting [43]), in experiment [15] (setting [43]) and in experiment [16] (setting [43]) were 48.8 nM, 2.1 nM and 10.5 nM, respectively.

As to RVIQLSRKTF, the Kd stood at 3290 nM in experiment [9] and 45.2 nM in [10] (setting [42]).

In [13] (source organism: Influenza A virus (A/chicken/Nakorn-Patom/Thailand/CU-K3/2004(H5N1))), FHDSNVKNL gave a Kd of 168 nM.

On to RVMVMVGATM, for which the Kd in experiment [17] was found to be 61.5 nM; in experiment [10] (setting [44]) it was 2.14 nM.

Turning to YGVKNLFDW, the Kd in experiment [14] (setting [45]) was 38.3 nM; in experiment [15] (setting [45]), 155 nM; in [16] (setting [45]) it was not below 5000 nM.

The sequence GEESASSGK displayed an IC50 in experiment [8] (setting [41]) not below 314000 nM.

In the case of LSRNSTHEMY, the Kd in experiment [18] was 32.2 nM; in [19] it was 291 nM; in [10] (source organism: Dengue virus 3 Martinique/1243/1999), 48.2 nM.

For ISTLPTEQF, the Kd in experiment [14] (setting [46]) was found to be 238 nM; in [15] (setting [46]), 6.5 nM; in experiment [16] (setting [46]), 2.2 nM.

As to STTLFKIDN, in experiment [8] (source organism: Sudan ebolavirus), the IC50 is not below 146000 nM.

Consider ITAAAWYLW, for which the Kd stood at 0.477 nM in experiment [20], 21.5 nM in [11] (setting [44]), 174 nM in experiment [12] (setting [44]) and 6.7 nM in [15] (source organism: dengue virus type 2).

As for LLAMTFWPA, the Kd in experiment [21] (source organism: Homo sapiens) is 0.2 nM; in experiment [22], not below 20000 nM; in experiment [1] it was not below 20000 nM; in experiment [2] it was not below 20000 nM; in experiment [23] it was not below 20000 nM; in experiment [3], not below 20000 nM. Further, the Kd in [24], in [6] and in experiment [7] was not below 20000 nM throughout.

For GLYPAQIKA, the Kd was 33 nM in [25]; not below 20000 nM in experiment [26] (source organism: Amur virus); not below 20000 nM in experiment [27]; 126 nM in [28]; 3.5 nM in [21] (source organism: Amur virus).

For KTTIKFHPW, the Kd in experiment [29] was not below 20000 nM; in experiment [30] it was not below 20000 nM; in [31], not below 20000 nM; in [32], not below 20000 nM; in experiment [14] (setting [47]), 215 nM; in experiment [33], not below 20000 nM. Moreover, the Kd in experiment [34] is not below 20000 nM; in experiment [35] it was not below 20000 nM; in experiment [15] (setting [47]), 27.8 nM; in experiment [26] (setting [47]) it was not below 20000 nM; in [36] it was not below 20000 nM; in experiment [16] (setting [47]) it was 47.5 nM. In addition, the Kd was not below 20000 nM in experiment [21] (setting [47]), not below 20000 nM in experiment [37], 333 nM in experiment [38] and not below 20000 nM in experiment [39].

For the sequence ATISTSPQS, the IC50 was 17500 nM in [8] (setting [41]) and not below 108000 nM in experiment [40].

On to YSLGQGPVW, for which the Kd is not above 1 nM in experiment [15] (setting [48]) and 2.6 nM in [16] (setting [48]).

In turn, FHFFVHTLL yielded a Kd in experiment [13] (source organism: Camelpox virus M-96) of 52 nM.

As for RVIGYILFF, the values for the Kd in experiment [15] (setting [45]) and in [16] (setting [45]) were 129 nM and 2040 nM, respectively.
